Reference: the supplement of paper PMC5998384

Assays:
[1] = system: HeLa Kyoto; assay: melting temperature (median over replicates), in situ; higher = more thermally stable
[2] = system: HeLa Kyoto; assay: solubility change mitosis vs G1/S (difference of NP-40 vs SDS log2 ratios) (log2 ratio difference); higher = more soluble in mitosis
[3] = system: HeLa Kyoto; assay: solubility in G1/S (NP-40 vs SDS abundance) (log2 ratio); higher = more soluble; conditions: cell cycle stage: G1/S
[4] = system: HeLa Kyoto; assay: thermal stability score vs G1/S (z-score of summed log2 fold changes over temperatures); higher = more thermally stable than in G1/S
[5] = cell cycle stage: early G1 (4.5 h after nocodazole release)
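Wherever melting temperature (median over replicates), in situ is given: HeLa Kyoto cells synchronized by double thymidine or nocodazole block, proteins quantified by TMT10plex mass spectrometry, three independent biological replicates.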
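Wherever solubility change mitosis vs G1/S (difference of NP-40 vs SDS log2 ratios) is given: synchronized HeLa Kyoto cells (double thymidine block for G1/S, nocodazole release for mitosis), protein amounts in NP-40 versus SDS lysates quantified by mass spectrometry, three biological replicates.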
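Wherever solubility in G1/S (NP-40 vs SDS abundance) is given: HeLa Kyoto cells arrested at G1/S by double thymidine block, proteins quantified by TMT10plex mass spectrometry in mild NP-40 versus SDS extracts, three biological replicates.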
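Wherever thermal stability score vs G1/S (z-score of summed log2 fold changes over temperatures) is given: synchronized HeLa Kyoto cells, proteins quantified by TMT10plex mass spectrometry, three biological replicates, mitosis taken 0.5 h after nocodazole release, G1/S directly after double thymidine block.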

Sequence | melting temperature ([1]; cell cycle stage: G1/S) | melting temperature ([1]; cell cycle stage: mitosis) | solubility change mitosis (log2) [2] | solubility in G1/S (log2) [3] | thermal stability score [4, 5] | thermal stability score ([4]; cell cycle stage: mitosis)
MVMKASVDDDDSGWELSMPEKMEKSNTNWVDITQDFEEACRELKLGELLHDKLFGLFEAMSAIEMMDPKMDAGMIGNQVNRKVLNFEQAIKDGTIKIKDLTLPELIGIMDTCFCCLITWLEGHSLAQTVFTCLYIHNPDFIEDPAMKAFALGILKICDIAREKVNKAAVFEEEDFQSMTYGFKMANSVTDLRVTGMLKDVEDDMQRRVKSTRSRQGEERDPEVELEHQQCLAVFSRVKFTRVLLTVLIAFTKKETSAVAEAQKLMVQAADLLSAIHNSLHHGIQAQNDTTKGDHPIMMGFEPLVNQRLLPPTFPRYAKIIKREEMVNYFARLIDRIKTVCEVVNLTNLHCILDFFCEFSEQSPCVLSRSLLQTTFLVDNKKVFGTHLMQDMVKDALRSFVSPPVLSPKCYLYNNHQAKDCIDSFVTHCVRPFCSLIQIHGHNRARQRDKLGHILEEFATLQDEAEKVDAALHTMLLKQEPQRQHLACLGTWVLYHNLRIMIQYLLSGFELELYSMHEYYYIYWYLSEFLYAWLMSTLSRADGSQMAEERIMEEQQKGRSSKKTKKKKKVRPLSREITMSQAYQNMCAGMFKTMVAFDMDGKVRKPKFELDSEQVRYEHRFAPFNSVMTPPPVHYLQFKEMSDLNKYSPPPQSPELYVAASKHFQQAKMILENIPNPDHEVNRILKVAKPNFVVMKLLAGGHKKESKVPPEFDFSAHKYFPVVKLV [NAA35] | 51.5 °C | 51 °C | -0.198 | -0.305 | 0.213 | 0.348
MAAAVSSVVRRVEELGDLAQAHIQQLSEAAGEDDHFLIRASAALEKLKLLCGEEKECSNPSNLLELYTQAILDMTYFEENKLVDEDFPEDSSSQKVKELISFLSEPEILVKENNMHPKHCNLLGDELLECLSWRRGALLYMYCHSLTKRREWLLRKSSLLKKYLLDGISYLLQMLNYRCPIQLNEGVSFQDLDTAKLLSAGIFSDIHLLAMMYSGEMCYWGSKYCADQQPENHEVDTSVSGAGCTTYKEPLDFREVGEKILKKYVSVCEGPLKEQEWNTTNAKQILNFFHHRCN [C5ORF51] | 49.5 °C | 49.9 °C | -0.0335 | 0.302 | 0.411 | 1.04
MASGVQVADEVCRIFYDMKVRKCSTPEEIKKRKKAVIFCLSADKKCIIVEEGKEILVGDVGVTITDPFKHFVGMLPEKDCRYALYDASFETKESRKEELMFFLWAPELAPLKSKMIYASSKDAIKKKFQGIKHECQANGPEDLNRACIAEKLGGSLIVAFEGCPV [DSTN] | 54.1 °C | 53.3 °C | -0.06 | 0.0748 | -0.977 | -2.53
MAALAPVGSPASRGPRLAAGLRLLPMLGLLQLLAEPGLGRVHHLALKDDVRHKVHLNTFGFFKDGYMVVNVSSLSLNEPEDKDVTIGFSLDRTKNDGFSSYLDEDVNYCILKKQSVSVTLLILDISRSEVRVKSPPEAGTQLPKIIFSRDEKVLGQSQEPNVNPASAGNQTQKTQDGGKSKRSTVDSKAMGEKSFSVHNNGGAVSFQFFFNISTDDQEGLYSLYFHKCLGKELPSDKFTFSLDIEITEKNPDSYLSAGEIPLPKLYISMAFFFFLSGTIWIHILRKRRNDVFKIHWLMAALPFTKSLSLVFHAIDYHYISSQGFPIEGWAVVYYITHLLKGALLFITIALIGTGWAFIKHILSDKDKKIFMIVIPLQVLANVAYIIIESTEEGTTEYGLWKDSLFLVDLLCCGAILFPVVWSIRHLQEASATDGKGDSMGPLQQRANLRAGSRIESHHFAQADLELLASSCPPASVSQRAGITAAINLAKLKLFRHYYVLIVCYIYFTRIIAFLLKLAVPFQWKWLYQLLDETATLVFFVLTGYKFRPASDNPYLQLSQEEEDLEMESVVTTSGVMESMKKVKKVTNGSVEPQGEWEGAV [GPR107] |  | 53.4 °C | -0.385 | -0.0201 | 0.348 | -0.468
MALLRGVFVVAAKRTPFGAYGGLLKDFTATDLSEFAAKAALSAGKVSPETVDSVIMGNVLQSSSDAIYLARHVGLRVGIPKETPALTINRLCGSGFQSIVNGCQEICVKEAEVVLCGGTESMSQAPYCVRNVRFGTKLGSDIKLEDSLWVSLTDQHVQLPMAMTAENLAVKHKISREECDKYALQSQQRWKAANDAGYFNDEMAPIEVKTKKGKQTMQVDEHARPQTTLEQLQKLPPVFKKDGTVTAGNASGVADGAGAVIIASEDAVKKHNFTPLARIVGYFVSGCDPSIMGIGPVPAISGALKKAGLSLKDMDLVEVNEAFAPQYLAVERSLDLDISKTNVNGGAIALGHPLGGSGSRITAHLVHELRRRGGKYAVGSACIGGGQGIAVIIQSTA [ACAA2] | 59.3 °C | 59.2 °C | -0.0842 | 0.213 | -3.39 | -4.11
MRVAVAGCCHGELDKIYETLALAERRGPGPVDLLLCCGDFQAVRNEADLRCMAVPPKYRHMQTFYRYYSGEKKAPVLTLFIGGNHEASNHLQELPYGGWVAPNIYYLGLAGVVKYRGVRIGGISGIFKSHDYRKGHFECPPYNSSTIRSIYHVRNIEVYKLKQLKQPIDIFLSHDWPRSIYHYGNKKQLLKTKSFFRQEVENNTLGSPAASELLEHLKPTYWFSAHLHVKFAALMQHQAKDKGQTARATKFLALDKCLPHRDFLQILEIEHDPSAPDYLEYDIEWLTILRATDDLINVTGRLWNMPENNGLHARWDYSATEEGMKEVLEKLNHDLKVPCNFSVTAACYDPSKPQTQMQLIHRINPQTTEFCAQLGIIDINVRLQKSKEEHHVCGEYEEQDDVESNDSGEDQSEYNTDTSALSSINPDEIMLDEEEDEDSIVSAHSGMNTPSVEPSDQASEFSASFSDVRILPGSMIVSSDDTVDSTIDREGKPGGTVESGNGEDLTKVPLKRLSDEHEPEQRKKIKRRNQAIYAAVDDDDDDAA [DBR1] | 54 °C | 55.1 °C | -0.212 | -0.0568 | 1.33 | 3.28
MTKAGSKGGNLRDKLDGNELDLSLSDLNEVPVKELAALPKATILDLSCNKLTTLPSDFCGLTHLVKLDLSKNKLQQLPADFGRLVNLQHLDLLNNKLVTLPVSFAQLKNLKWLDLKDNPLDPVLAKVAGDCLDEKQCKQCANKVLQHMKAVQADQERERQRRLEVEREAEKKREAKQRAKEAQERELRKREKAEEKERRRKEYDALKAAKREQEKKPKKEANQAPKSKSGSRPRKPPPRKHTRSWAVLKLLLLLLLFGVAGGLVACRVTELQQQPLCTSVNTIYDNAVQGLRRHEILQWVLQTDSQQ [LRRC59] | 56.7 °C | 54 °C | 0.236 | 0.751 | 2.96 | -1.3
MAECGRGGAAGGALPTSPGPALGAKGALKAGVGEGGGGGGRLGHGRARYDSGGVSNGDCSLGVSGDEARASPTRGPRGVALAPTPSAVVCTLPRESKPGGLPRRSSIIKDGTKQKRERKKTVSFSSMPTEKKISSASDCINSMVEGSELKKVRSNSRIYHRYFLLDADMQSLRWEPSKKDSEKAKIDIKSIKEVRTGKNTDIFRSNGISDQISEDCAFSVIYGENYESLDLVANSADVANIWVTGLRYLISYGKHTLDMLESSQDNMRTSWVSQMFSEIDVDNLGHITLCNAVQCIRNLNPGLKTSKIELKFKELHKSKDKAGTEVTKEEFIEVFHELCTRPEIYFLLVQFSSNKEFLDTKDLMMFLEAEQGVAHINEEISLEIIHKYEPSKEGQEKGWLSIDGFTNYLMSPDCYIFDPEHKKVCQDMKQPLSHYFINSSHNTYLIEDQFRGPSDITGYIRALKMGCRSVELDVWDGPDNEPVIYTGHTMTSQIVFRSVIDIINKYAFFASEYPLILCLENHCSIKQQKVMVQHMKKLLGDKLYTTSPNVEESYLPSPDVLKGKILIKAKKLSSNCSGVEGDVTDEDEGAEMSQRMGKENMEQPNNVPVKRFQLCKELSELVSICKSVQFKEFQVSFQVQKYWEVCSFNEVLASKYANENPGDFVNYNKRFLARVFPSPMRIDSSNMNPQDFWKCGCQIVAMNFQTPGLMMDLNIGWFRQNGNCGYVLRPAIMREEVSFFSANTKDSVPGVSPQLLHIKIISGQNFPKPKGSGAKGDVVDPYVYVEIHGIPADCAEQRTKTVHQNGDAPIFDESFEFQINLPELAMVRFVVLDDDYIGDEFIGQYTIPFECLQTGYRHVPLQSLTGEVLAHASLFVHVAITNRRGGGKPHKRGLSVRKGKKSREYASLRTLWIKTVDEVFKNAQPPIRDATDLRENMQNAVVSFKELCGLSSVANLMQCMLAVSPRFLGPDNTPLVVLNLSEQYPTMELQGIVPEVLKKIVTTYDMMIQSLKALIENADAVYEKIVHCQKAAMEFHEHLHSIGTKEGLKERKLQKAVESFTWNITILKGQADLLKYAKNETLENLKQIHFAAVSCGLNKPGTENADVQKPRRSLEVIPEKANDETGE [PLCL2] | 50.4 °C | 50.2 °C | -0.105 | -0.0622 | -0.0105 | -0.32
